pKd: −log10 of the molar value.
Experiments:
[1] = test system: Fab16 (anti-FNIII, YSGR Min clone 16) (synthetic); test: filter; conditions: filter binding / dot blot assay
[2] = test system: Fab8 (anti-P4-P6, YSGR Min clone 8) (synthetic); test: FP; conditions: filter binding / dot blot assay
[3] = test system: Fab11 (anti-P4-P6, YSGR Min clone 11) (synthetic); test: filter; conditions: filter binding / dot blot assay
[4] = test system: Fab29 (anti-VCIII, YSGR Min clone 29) (synthetic); test: filter; conditions: filter binding / dot blot assay; Example 2 names the V. cholerae target VCLD1
[5] = test system: Fab30 (anti-VCIII, YSGR Min clone 30) (synthetic); test: filter; conditions: filter binding / dot blot assay; Example 2 names the V. cholerae target VCLD1
[6] = test system: T1, Fab7 (anti-tRNAiMet) (synthetic); test: filter; conditions: soluble Fab; discrete complex also in native gel
T1 sequence: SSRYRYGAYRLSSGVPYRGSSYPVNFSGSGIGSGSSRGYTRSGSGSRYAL

[7] = test system: Fab1 (anti-tRNAiMet, YSGRX clone 1), phage displayed (synthetic); test: competition; conditions: competitive phage ELISA; selection RNA carried a 29 nt 3' tag

Substance: FNIII glycine riboswitch
- pKd [1]: 6.80

Substance: P4-P6 domain of Tetrahymena group I intron
- pKd [2]: 7.28
- pKd [3]: 7.70

Substance: VCIII glycine riboswitch
- pKd [4]: 7.42
- pKd [5]: 7.66

Substance: human initiator tRNAiMet transcript
- pKd [6]: 7.23
- pKd [7]: 7.28
